Measured values published in PMC9560800.
Where “and” joins values, the source holds several entries; their conditions need not be identical. Equal entries are not always repeated.

Columns and labels:
[1] = target: tag-less B.1.351 trimeric spike protein (SARS-CoV-2 | T4 phage); assay: SEC-MALS
[2] = target: tag-less B.1.617.2 trimeric spike protein (SARS-CoV-2 | T4 phage); assay: SEC-MALS

Substance: tag-less B.1.351 trimeric spike protein
- stoichiometry N [1]: 3 and 6

Substance: tag-less B.1.617.2 trimeric spike protein
- stoichiometry N [2]: 3 and 6
